The source of these data is PMC9529903, “Structural insights of the elongation factor EF-Tu complexes in protein translation of Mycobacterium tuberculosis” (Communications Biology, 2022).

In general, Kd refers to the free concentration of one partner at which half of the binding sites on the other are occupied at equilibrium, for simple one-to-one binding. The term stoichiometry N denotes a count of units in the complex or per binding partner.

One assay has as its target T1, EF-Tu (Mycobacterium tuberculosis, UniProt P9WNN1).
T1 construct: gene tuf; full-length
Briefly: biochemical. Type of assay: binding.

For the next assay, the target named is EF-Ts (Escherichia coli) (UniProt P0A6P1). Particulars: cited from earlier work.
The target in assay [1] is T2, Mycobacterium tuberculosis elongation factor EF-Tu (Mycobacterium tuberculosis, UniProt P9WNN1 1-396).
T2 construct: also called Mtb EF-Tu
Put plainly: ITC. Particulars: both partners purified.

T2 sequence (P9WNN1 whole entry): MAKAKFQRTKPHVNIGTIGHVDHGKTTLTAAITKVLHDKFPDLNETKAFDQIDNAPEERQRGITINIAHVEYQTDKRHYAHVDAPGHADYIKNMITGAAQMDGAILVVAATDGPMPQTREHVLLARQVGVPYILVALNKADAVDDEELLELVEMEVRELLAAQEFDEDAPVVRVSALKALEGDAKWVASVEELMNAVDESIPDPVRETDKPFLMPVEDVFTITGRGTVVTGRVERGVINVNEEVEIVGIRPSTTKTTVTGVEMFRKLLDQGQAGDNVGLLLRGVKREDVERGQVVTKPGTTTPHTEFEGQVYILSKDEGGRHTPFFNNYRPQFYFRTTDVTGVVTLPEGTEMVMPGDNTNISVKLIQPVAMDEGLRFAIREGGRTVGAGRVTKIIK
T1 sequence (P9WNN1 whole entry): as above
EF-Ts (Escherichia coli), sequence (P0A6P1 2-283): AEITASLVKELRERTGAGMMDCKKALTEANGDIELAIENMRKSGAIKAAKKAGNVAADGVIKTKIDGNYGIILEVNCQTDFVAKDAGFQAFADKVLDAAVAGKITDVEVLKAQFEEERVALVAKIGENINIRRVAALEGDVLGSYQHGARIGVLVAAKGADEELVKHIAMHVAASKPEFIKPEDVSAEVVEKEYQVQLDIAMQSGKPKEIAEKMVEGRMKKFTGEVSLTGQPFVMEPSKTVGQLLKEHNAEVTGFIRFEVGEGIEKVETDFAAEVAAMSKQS

As for `C=CC(=O)Nc1cc(Nc2nccc(-c3cn(C)c4ccccc34)n2)c(OC)cc1N(C)CCN(C)C` [Osimertinib], at EF-Tu, the Kd amounted to 207 µM.

In the case of EF-Tu (from UniProt P0CE47), the Kd with EF-Ts (Escherichia coli) is 0.002 µM.

B1: Mycobacterium tuberculosis elongation factor EF-Ts (natural protein)
chain: MANFTAADVKRLRELTGAGMLACKNALAETDGDFDKAVEALRIKGAKDVGKRAERATAEGLVAAKDGALIELNCETDFVAKNAEFQTLADQVVAAAAAAKPADVDALKGASIGDKTVEQAIAELSAKIGEKLELRRVAIFDGTVEAYLHRRSADLPPAVGVLVEYRGDDAAAAHAVALQIAALRARYLSRDDVPEDIVASERRIAEETARAEGKPEQALPKIVEGRLNGFFKDAVLLEQASVSDNKKTVKALLDVAGVTVTRFVRFEVGQA
notes: also called Mtb EF-Ts
Regarding B1, in assay [1], the Kd is ~1.36 µM and the “stoichiometry N” value came to 1.
